Patent US7417025B2, “Use of poly-α2,8-sialic acid mimetic peptides to modulate NCAM functions” (Centre National de la Recherche Scientifique, priority 2002, dated 2008)

What was measured:
[1] = test system: 30H12 antibody; experiment: ELISA with peptide-BSA conjugate on 30H12-coated plates; format: binding; settings: no competitor, FIG. 12A
Excerpt: FIG. 12A: ELISA using 30H12 anti-PSA monoclonal antibody-coated plates.
The specificity of the cyclic peptides was investigated in an ELISA assay using plates coated with 30H12 antibody, following the protocol as described above for the competitive ELISA, with the exception that the competitor was omitted.

[2] = test system: chick retina axons; experiment: Intravitreal injection in chick embryo, retinal whole mount: axon fasciculation and guidance in vivo; settings: injected into chicken embryo eyes at E3, retina observed at E9
Protocol: The dashed rectangle indicates the area from which photographs were taken. Arrows point toward the optic fissure. Axons of E9 chick retina injected at E3 with the reverse peptide (C,F) or the p65 peptide (D,G,E,H). Arrowheads show examples of axons that leave their fascicle and run perpendicularly to it.
Injections were performed as described in Monnier et al. (Developmental Biology, 2001, 229, 1-14). Briefly, a 2×2 cm window was cut into the shell over E3 chick embryos. One μl of Fast green with 10 mM of p65 or reverse peptide was injected into the right eye vitreous body using a capillary. After a five-days incubation at 37° C., (E8) retinae were dissected, spread onto nitrocellulose filters (MILIPORE), and fixed with 4% paraformaldehyde solution in PBS. Two small DiI (1,1′-dioctadecyl-3,3,3′,3′-tetramethylindocarbocyanine perchlorate) crystals were applied dorsally to the optic fissure. Retinae were stored in the dark at 37° C. for 10 days until the dye reached the axonal growth cones in the fissure, mounted in glycerol:PBS (9:1, v:v) and analysed using confocal microscopy.

[3] = test system: GFP positive SVZ cells migrating to the olfactory bulb; experiment: Transplantation of GFP SVZ explants: cell migration in vivo; set-up: species or system mouse
Protocol: 100 μm diameter explants of 1-day-old GFP mice SVZ were incubated fifteen minutes in DMEM supplemented with 10% fetal bovine serum in presence of 0.01 M of p65 or reverse peptide and stereotaxically grafted (0.5 μl) into six weeks old mice SVZ as described in Lois and Alvarez-Buylla (Science, 1994, 264, 1145-1 148). Three or four days after the graft, animals were perfused intracardiacally with a 4% paraformaldehyde solution in PBS. Brains were dissected out, postfixed, cryoprotected, and freezed in isopentane. Sagittal serial sections (12 μm) were cut with a Leica microtome and immunostained as described above. GFP cells arriving in the olfactory bulb after three days were observed using UV fluorescence with a 40× objective (Axioscope, ZEISS) and counted on two different experiments (four animals per condition). The significance of the difference between the two conditions was calvalated by Student's t test.
The effect of PSA mimetic peptides on cell migration in vivo was analysed by grafting tissue and evaluating migration of SVZ cells. Small pieces of SVZ tissue (100 μm diameter) from 1-day-old GFP mice were grafted in the SVZ area of adult mice, in the presence of p65, p65 reverse peptide or in the absence of peptide. The results are illustrated in FIG. 8.

[4] = test system: Glial Fibrillary acidic Protein (GFAP) expression; experiment: Reactive gliosis after spinal cord injury (GFAP staining); format: in vivo, mouse; settings: D5 following surgery
Protocol: At D5, lesioned animals which received either p65 (n=3) or reversed p65 (n=3) were transcardiacally perfused. Spinal cords were sectioned in the sagittal plane at 20 μm intervals in blocks of 10 mm length at the lesion site. To examine lesion extent, Nissl staining was performed in series of 1-in-6 sections in all animals. Series of 1-in-3 sections were stained with the MenB anti-PSA (mouse IgM) and/or anti-GFAP (mouse IgG) antibodies.
To assess the effect of the peptide, quantification of the Glial Fibrillary acidic Protein (GFAP) expression as an index of reactive gliosis, was undertaken in a subset of animals taken D5 following surgery. These animals were selected in a blinded manner for quantification. 3 p65 (10 slices per animal) and 3 p65-reverse (10 slices per animal) animals were analyzed. Double-labelling was performed with MenB anti-PSA antibody. Quantification was also performed in a blinded manner.

[5] = test system: subventricular zone explants (neuronal precursors); experiment: Subventricular zone (SVZ) explant culture: cell migration in vitro; format: cell-based, mouse; settings: 0.4 μM peptide
[6] = biological target: BSA (Bos taurus, UniProt P02769); experiment: Peptide-BSA conjugate ELISA, control wells coated only with blocking solution (BSA); format: binding; settings: biotinylated peptide-BSA conjugate, BSA-blocked wells, no mAb
BSA, sequence (P02769 25-607): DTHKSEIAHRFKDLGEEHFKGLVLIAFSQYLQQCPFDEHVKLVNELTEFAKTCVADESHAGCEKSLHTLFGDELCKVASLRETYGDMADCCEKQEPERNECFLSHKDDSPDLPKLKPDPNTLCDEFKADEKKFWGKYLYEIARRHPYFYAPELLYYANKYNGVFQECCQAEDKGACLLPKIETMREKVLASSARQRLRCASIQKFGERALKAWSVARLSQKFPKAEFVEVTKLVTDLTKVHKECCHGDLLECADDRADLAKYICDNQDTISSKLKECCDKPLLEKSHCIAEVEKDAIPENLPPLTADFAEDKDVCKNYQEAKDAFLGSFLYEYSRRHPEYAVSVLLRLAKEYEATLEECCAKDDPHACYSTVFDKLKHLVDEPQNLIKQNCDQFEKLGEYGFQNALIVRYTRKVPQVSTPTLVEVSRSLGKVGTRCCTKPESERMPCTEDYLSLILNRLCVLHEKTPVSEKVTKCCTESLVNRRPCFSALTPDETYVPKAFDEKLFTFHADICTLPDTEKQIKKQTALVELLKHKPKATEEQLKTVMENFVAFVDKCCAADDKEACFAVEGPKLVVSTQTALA
Excerpt: • mAb 735 and 30H12 • MaxiSorp™ plates (NUNC) for coating the antibody: ELISA plates • microtiter plates (NUNC) for peptide dilution: dilution plates • Biotinylated peptide-BSA conjugates prepared as above described • Extravidin alkaline phosphatase-avidin conjugate (SIGMA E2636) • p-nitrophenyl-phosphatase alkaline substrate (SIGMA 104-105) 2.1.2) Buffers • PBS pH 7.4 • Blocking solution: 0.5% BSA in PBS • TBS • TBST: TBS containing 0.05% Tween 20 • Extravidin alkaline phosphatase-avidin conjugate solution: 1/5000 in TBST • Alkaline phosphatase substrate solution; 1 tablet in 5 ml 50 mM NaHCO3, 1 mM MgCl2 solution, pH 9.6. • mixed competitor solution: 1 mM colominic acid with a peptide-BSA conjugate gradient in TBST 2.1.3) Method
Maxisorp™ plate wells were coated with 100 μl mAb solution (25 μg/ml) for 2 h at room temperature. The control wells of the ELISA plates were only coated with the blocking solution. In parallel, the peptide-BSA conjugate dilution plates were blocked with 200 μl blocking solution for 2 h. The antibody coated wells and the control wells were blocked with 200 μl blocking solution for 1 h. In parallel the peptide-BSA conjugate dilution plates were washed 6 times with TBST and 120 μl TBST was added to the wells. An appropriate volume of peptide-BSA conjugate solution was added to the first well and the volume adjusted to 140 μl with TBST. The peptide-BSA conjugate in well one was diluted in the ratio 1/7 by taking 20 μl out of the first well and transferring into the second also to achieve the total volume of 140 μl. This was repeated for the remaining wells. The peptide-BSA conjugate dilutions for the control wells were done the same way. The blocked ELISA plates were washed 6 times with TBST and the peptide-BSA conjugate dilutions or 100 μl of the mixed competitor solution was added to the wells. After incubation for 1 h, the wells were washed 10 times with TBST and 100 μl of the alkaline phosphatase substrate solution was added to the wells. The plates were read out after 10 to 60 min using a microplate reader at 405 nm.
The specificity of peptide p21 (SEQ ID NO: 1) was investigated in a competition ELISA using biotinylated p21-BSA conjugate and a randomized variant of p21 (p22) conjugate as a control. The results presented in Tables X and XI are expressed as percentage of binding by comparison with peptide p21 at the highest concentration (9.45 10^-5 M) which corresponds to 100% binding.

Row | Sequence | Binding of cyclic peptides to 30H12 antibody in ELISA [1] | Axon guidance and fasciculation in retina in vivo [2] | Increase of the number of GFP positive cells present in the olfactory bulb by comparison with the control ([3]; 3 days after the graft) [times] | Number of GFP positive cells migrating to the olfactory bulb ([3]; by comparison with the control, from 3 days post-engraftment) | Reduction of reactive gliosis (GFAP staining) compared with reverse p65-treatment [4] [%] | Increase in the rate of migration of the neuronal precursors compared with the control without peptide [5] | Binding of peptide to BSA control wells (percentage of binding) ([6]; peptide 1.62 10^−9 M) [%] | Binding of peptide to BSA control wells (percentage of binding) ([6]; peptide 1.67 10^−5 M) [%] | Binding of peptide to BSA control wells (percentage of binding) ([6]; peptide 2.86 10^−9 M) [%] | Binding of peptide to BSA control wells (percentage of binding) ([6]; peptide 2.94 10^−6 M) [%] | Binding of peptide to BSA control wells (percentage of binding) ([6]; peptide 5.04 10^−10 M) [%] | Binding of peptide to BSA control wells (percentage of binding) ([6]; peptide 5.20 10^−7 M) [%] | Binding of peptide to BSA control wells (percentage of binding) ([6]; peptide 8.89 10^−11 M) [%] | Binding of peptide to BSA control wells (percentage of binding) ([6]; peptide 9.27 10^−8 M) [%] | Binding of peptide to BSA control wells (percentage of binding) ([6]; peptide 9.45 10^−5 M) [%]
1 | CSSVTAWTTGCG [p65] | highest binding | axons guidance and fasciculation defects | 17 | increases significantly | 40 | +40% |  |  |  |  |  |  |  |  | 
2 | DSPLVPFIDFHP [p21] |  |  |  |  |  |  | 0 ± 0 | 1 ± 0 | 0 ± 0 | 0 ± 0 | 0 ± 0 | 0 ± 0 | 0 ± 0 | 0 ± 0 | 3 ± 1
